Key:
BSA = target: T1, BSA (Bos taurus, UniProt P02769); assay: antigen ELISA: antigen coated at 10 ug/ml, HRP anti-mouse IgG [panel B]
T1 construct: coated on the ELISA plate as negative control antigen; also called bovine serum albumin
Experimental: For this experiment, sCEA, CHIM, monkey CEA, CEA-v and BSA were coated in 96-well plates at a high concentration of 10 μg/ml overnight at 4° C. […] The HRP-linked anti-mouse IgG antibody (Cat. No. 7076S, Cell Signaling Technology, USA) and substrate (Cat. No. 00-4201-56, eBioscience, USA) were used for development, and absorbance signal at the wavelength of 450 nm was measured using a plate reader (SpectraMax Paradigm, Molecular Devices, USA).

[1] = target: T2, full-length human CEA on cells (human, UniProt P06731 35-685); assay: cell-based or functional assay
T2 sequence: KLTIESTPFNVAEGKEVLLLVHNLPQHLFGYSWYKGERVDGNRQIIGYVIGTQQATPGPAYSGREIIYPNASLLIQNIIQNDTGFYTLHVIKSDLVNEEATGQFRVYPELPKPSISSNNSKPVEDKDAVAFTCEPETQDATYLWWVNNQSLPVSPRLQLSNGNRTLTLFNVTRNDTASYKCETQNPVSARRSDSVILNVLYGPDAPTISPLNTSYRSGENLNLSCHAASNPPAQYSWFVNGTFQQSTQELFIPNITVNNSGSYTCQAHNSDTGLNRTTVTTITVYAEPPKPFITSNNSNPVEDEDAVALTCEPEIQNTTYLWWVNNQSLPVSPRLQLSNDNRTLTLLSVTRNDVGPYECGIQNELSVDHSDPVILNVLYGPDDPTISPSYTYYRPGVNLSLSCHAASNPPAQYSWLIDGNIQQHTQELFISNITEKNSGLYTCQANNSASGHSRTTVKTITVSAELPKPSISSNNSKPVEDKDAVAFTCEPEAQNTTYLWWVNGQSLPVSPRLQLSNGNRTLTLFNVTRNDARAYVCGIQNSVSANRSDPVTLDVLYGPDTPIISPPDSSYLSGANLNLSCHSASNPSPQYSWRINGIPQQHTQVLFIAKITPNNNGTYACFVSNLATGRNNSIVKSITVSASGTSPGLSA

[2] = target: T2, full-length human CEA on cells; assay: flow cytometry on LOVO cells, Alexa Fluor 647 anti-human IgG Fc
Experimental: For this experiment, anti-human IgG (Fc) antibody was immobilized on an activated CM5 biosensor chip (Cat. No. BR100839, GE Life Sciences). Anti-CEA antibodies were flowed over the chip surface and captured by anti-human Fab antibody. […] For flow cytometry, CEA-expressing cells (10⁵ cells/well) were incubated with various concentrations of purified affinity-matured antibodies, followed by binding with Alexa Fluro-647-labeled anti-hu IgG Fc antibody (Cat. No. 409320, BioLegend, USA). Cell fluorescence was quantified using a flow cytometer (Guava easyCyte™ 8HT, Merck-Millipore, USA). The equilibrium dissociation constant (KD) was calculated as the ratio koff/kₒₙ.

[3] = target: T2, full-length human CEA on cells; assay: flow cytometry on MKN45 cells, Alexa Fluor 647 anti-human IgG Fc
Experimental: For flow cytometry, CEA-expressing MKN45 cells (10⁵ cells/well) were incubated with various concentrations of purified affinity-matured antibodies, followed by binding with Alexa Fluro-647-labeled anti-hu IgG Fc antibody (Cat. No. 409320, BioLegend, USA). Cell fluorescence was quantified using a flow cytometer (Guava easyCyte™ 8HT, Merck-Millipore, USA).

[4] = target: T3, CEACAM7 on transfected HEK293 cells (human, UniProt Q14002 36-242); assay: flow cytometry on transiently transfected HEK293 cells, Alexa Fluor 647 anti-human IgG Fc [panel B]
T3 sequence: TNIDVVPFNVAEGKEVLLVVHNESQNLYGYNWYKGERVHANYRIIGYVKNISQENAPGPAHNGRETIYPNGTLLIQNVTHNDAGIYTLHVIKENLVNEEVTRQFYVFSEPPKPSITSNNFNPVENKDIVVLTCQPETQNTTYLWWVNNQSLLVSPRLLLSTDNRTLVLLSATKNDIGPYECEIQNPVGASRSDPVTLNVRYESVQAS
Experimental: (§1) Cell fluorescence was quantified using a flow cytometer (Guava easyCyte™ 8HT, Merck-Millipore, USA). For antigen ELISA, CEACAM1(SEQ ID NO:64) (Cat. No. 10822-H08H, Sino Biological, China), CHIM (SEQ ID NO: 63), CEA (SEQ ID NO:55) or CEACAM6 (SEQ ID NO:57) were coated in 96-well plates at a concentration of 10 μg/ml overnight at 4° C. The HRP-linked anti-human Fc (Fc specific) IgG antibody (Cat. No. A0170, Sigma, USA) and substrate (Cat. No. 00-4201-56, eBioscience, USA) were used for development, and absorbance signal at the wavelength of 450 nm was measured using a plate reader (SpectraMax Paradigm, Molecular Devices, USA).

[5] = target: T4, CEACAM8 on transfected HEK293 cells (human, UniProt P31997 35-320); assay: as above
T4 sequence: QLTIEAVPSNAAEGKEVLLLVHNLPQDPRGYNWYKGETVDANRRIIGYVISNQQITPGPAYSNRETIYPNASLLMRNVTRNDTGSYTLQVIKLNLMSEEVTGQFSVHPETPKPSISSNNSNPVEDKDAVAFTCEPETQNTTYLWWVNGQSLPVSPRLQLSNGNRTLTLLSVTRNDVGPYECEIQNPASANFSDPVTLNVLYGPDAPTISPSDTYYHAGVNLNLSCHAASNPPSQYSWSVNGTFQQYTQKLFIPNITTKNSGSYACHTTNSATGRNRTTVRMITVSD
Experimental: as §1

T1 sequence (P02769 25-607 limits assumed): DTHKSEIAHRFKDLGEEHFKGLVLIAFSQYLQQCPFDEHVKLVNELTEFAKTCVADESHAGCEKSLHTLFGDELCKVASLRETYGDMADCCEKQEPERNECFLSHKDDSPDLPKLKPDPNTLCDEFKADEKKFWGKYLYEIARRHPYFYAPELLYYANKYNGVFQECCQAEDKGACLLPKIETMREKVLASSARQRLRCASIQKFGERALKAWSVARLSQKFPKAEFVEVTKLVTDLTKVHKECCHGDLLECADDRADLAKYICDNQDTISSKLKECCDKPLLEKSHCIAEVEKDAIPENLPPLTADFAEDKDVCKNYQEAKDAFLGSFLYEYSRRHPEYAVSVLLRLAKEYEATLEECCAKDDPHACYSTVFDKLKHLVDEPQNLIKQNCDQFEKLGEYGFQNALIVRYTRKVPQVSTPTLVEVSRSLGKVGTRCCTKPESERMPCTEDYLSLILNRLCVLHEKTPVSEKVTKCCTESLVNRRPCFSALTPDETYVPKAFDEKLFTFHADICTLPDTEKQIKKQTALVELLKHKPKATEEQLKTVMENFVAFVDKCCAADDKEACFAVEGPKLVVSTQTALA

B1: BGA13 (antibody, V domains shown)
VH: QVQLQQSGAELAKSGASVKMSCKASGYIFTSYWLHWVKQRPGQGLEWIGYINPNTGYTNYSQKFKDKATLTADKSSSTAYMQLSSLTSEDSAVYYCAREYGNYNYPLDYWGQGTSVTVSS
VL: DIQMTQSPASLSASVGETVTITCRASENIYGYLAWYQQKQGKSPQLLVFNAKNLVEGVPSRFSGSGSGTQFSLKINSLQPEDFGSYYCQHHYGTPYTFGGGTKLEIK
notes: murine monoclonal IgG purified from hybridoma supernatant; also called murine anti-CEA antibody BGA13
BSA
  binding result: no binding

B2: BGA113 (antibody, human IgG1, V domains shown)
VH: QVQLVQSGAEVKKPGASVKVSCKASGYIFTSYYLHWVRQAPGQGLEWIGYINPQTGYTSYAQKFQGRVTMTRDTSTSTVYMELSSLRSEDTAVYYCAREYGNYNYPLDYWGQGTLVTVSS
VL: DIQMTQSPSSLSASVGDRVTITCRASENQYGYLAWYQQKPGKVPKLLIYNYKNLVEGVPSRFSGSGSGTDFTLTISSLQPEDVATYYCQHHLGTPYTFGQGTKVEIK
notes: W33Y (VH), T51Y (VL) on BGA131F-ph-M; wild-type human IgG1 format
[1]
  ADCC (LDH release), EC50: ~0.0067 µg/mL
[2]
  EC50 (read off the curve): ~1 nM

B3: BGA131F (antibody, human IgG1, V domains shown)
VH: QVQLVQSGAEVKKPGASVKVSCKASGYIFTSYWLHWVRQAPGQGLEWIGYINPQTGYTSYAQKFQGRVTMTRDTSTSTVYMELSSLRSEDTAVYYCAREYGNYNYPLDYWGQGTLVTVSS
VL: DIQMTQSPSSLSASVGDRVTITCRASENIYGYLAWYQQKPGKVPKLLIYNAKNLVEGVPSRFSGSGSGTDFTLTISSLQPEDVATYYCQHHYGTPYTFGQGTKVEIK
notes: BGA131 with N54Q, N59S, S61A in VH; human IgG1 / kappa format
[2]
  EC50 (read off the curve): ~6 nM

B4: BGA113K (antibody, human IgG1, V domains shown)
VH: QVQLVQSGAEVKKPGASVKVSCKASGYIFTSYYLHWVRQAPGQGLEWIGYINPQTGKTSYAQKFQGRVTMTRDTSTSTVYMELSSLRSEDTAVYYCAREYGNYNYPLDYWGQGTLVTVSS
VL: DIQMTQSPSSLSASVGDRVTITCRASENQYGYLAWYQQKPGKVPKLLIYNYKNLVEGVPSRFSGSGSGTDFTLTISSLQPEDVATYYCQHHLGTPYTFGQGTKVEIK
notes: BGA113 with Y57K in the heavy chain; generated in human IgG1 format; also called BGA113 variant Y57K; Y57K
[3]
  EC50 (read off the curve): ~0.5 µg/mL
[4]
  binding result: no binding (tested: 2 ug/ml (from paragraph 184; not on the sheet))
[5]
  binding result: no binding (tested: 2 ug/ml (from paragraph 184; not on the sheet))

B5: BGA131F-ph-M (antibody, V domains shown)
VH: QVQLVQSGAEVKKPGASVKVSCKASGYIFTSYWLHWVRQAPGQGLEWIGYINPQTGYTSYAQKFQGRVTMTRDTSTSTVYMELSSLRSEDTAVYYCAREYGNYNYPLDYWGQGTLVTVSS
VL: DIQMTQSPSSLSASVGDRVTITCRASENQYGYLAWYQQKPGKVPKLLIYNTKNLVEGVPSRFSGSGSGTDFTLTISSLQPEDVATYYCQHHLGTPYTFGQGTKVEIK
notes: BGA13-1F heavy chain with a selected kappa light chain, IgG; also called BGA1311F-ph-M
[2]
  EC50 (read off the curve): ~5 nM
